Measured values: a protein production outcome set (Wang et al. 2014)

Assay: label from the status in PepcDB records
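Also: failed if final PepcDB status was selected cloned or expressed and not failed if soluble or beyond.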

Sequence | protein production
MNRNRQLSDPSRFSGMAAGFFMATLGAVLFSGKAIVVKFTYRYGIDAVTLIAFRMLFAMPFFAAVAWWQARRAARGELPVLSWRERGQLCALGLLGYYLSSFLDFLGLRHITAGLERLILFLSPSLVVLLSAWWLKRPVTRRQWGAMLLSYVGVALVLSHDLSQSGAGADVLTGSFFVFCSALSYSVYLICSGELVERVGATRLVAYAMLVSCVASLIQFFLIHPASVLVQPAAVYGYSVIHATVNTVLPVFMLMWAVALVGAPTASLLGMVGPVSVLFLAAWFLDEPITVWQLAGTALVLAGVFVLAGRRRPARP | failed
MTAANSERYALRLLGPFELTAPGGRRVEITSKKGIAVVAMLALSRDGARSRGWLQDRLWGSRRKAEAAGSLRRELSNLRKLLNADGAELLLSDRDRVRLRTDLIDIDLFVARSGRANGEFLEGLDISSERGFGEWLREQRDALVPPAQDVVVSAVTAGAGTLPTHIVDISTPPVGFAGRPAIAVLPFANATGDETLDYVAEGIGEELIVGLSRIRWLPVISRNSSFSFTESDDRKLIGQRLGAQYLVEGRLYRAYDSYGVSASLAEAITGYSLWSRRFTLQSPAAHDELVQFVNELVAQLESRIEHAEQIRIRGKRQDKLGVCDLIWRGRWHLNRLTRADSEMAQKLFAEALALDPDSPEALIQATAALAWSIWAGRQPQDQIQRMRKLSQQAMLADPDDGRGFMLAGIAEMWLRHPLEAKNLLRQAITLTPSLALAHAQLGGCFNLAGEPDRAIVQLKTAMRLSSNDPNIFYSLGELALAYTMLGQWPEAIEHATLALARRPAYWYAHVLKINALARIGQLDAARIACDELLAIKPNFSKRFLDWLPFVDRTWVDHFVQGLKMVPGRPSDWPERETHETAA | failed
MANCFAPQLTFPSFSPRHFSPRMSHQSPKPSTSTTTSIFTSATKLLWGPSLPPGLLISTARTAWTTVWQLMMTQLAPSDSSGSYTRPTSKFRLDPTQFTSAASSELHLYVGLPCPWAHRTLIVRALKGLNDAVPVSIASPGQDGSWEFKNNNIPIKDKDKLIPSLDKANRCRNLKEVYKSRSGGYDGRCTVPMLWDLRKKDVVCNESYDIIEFFNSGLNKLARNDNLDLSPPELKEMIQGWNQIVYPKVNNGVYRCGFAQSQEAYDGAVNELFSTLDEIEDHLGSNRYLCGERLTLADVCLFTTLIRFDSVYNILFKCTKKKLVEYPNLYGYLREIYQIPGVAATCDISAIMDGYYKTLFPLNASGIQPAISSSGDQDSLWRPHNRDLVGKAIEAQLSV | failed
MDSSSISSLLEDLKHSDALVREQATKKLWRIWFQQKGMYGLEKIDQSQKLLDAGEITEAEVMLTQLIQEQPDFAEAWNRRAFLYYSMGEYQKSLADCQMVIQINPVHFGALHGIGLCYAALGKYAKAIKAFKRALEIQPYSLVNQKLILECTFRLSLEHHHHHH | failed
MIDMEQDNRNQINGENISNASAGGTQPEQNTQSSQNMHPEQTGQGTQQDSLYHYSYMNNKGDARFDRPAGETSQQRMGAQTQNMRETANVQGGTQNTAYSGFQRNVNGMEAWYDSQRMNAGYQNPENNVGGYGQGSQSVPHKTETSHKHEKQPKPKKNSGKKSGVGKKVAGVVAAAVVFGLVAGVVFQGVRYGSDKMLNKNSATTEASADATTENNAPQLKQASSDATNTVYDVATVAQKVMPSIVSITGTYVTTYDYWFNSYQQESTGAGSGIIIGKDDQYLYLATNYHVVQNAKSLSVTFVNDKSADATVKGYVENNDIAVVTVKLADISDDTLNEIKEIQVGSSDDLSVGDPCVAIGNALGYGQSVTVGYISALNREISASDETVKVLQTDAAINPGNSGGALVNMQGELIGINTAKYSDTSVEGMGYALPISDIQDIINDLIAGKKVASDGTASGQAYLGISAQTITSQYSQLLNMPEGVYISSVEQGSAAEECGLQSGDIICSLDGEDIADMDTFHDRIVACKPGDKVTIVYYRNNNGNYEKQTTTATLQEKQ | failed
MLKSKIKEEYVQMDQVDWKPFPAAFSTGGIRWKLLHVSPEMGSWTAIFDCPAGSSFAAHVHVGPGEYFLTKGKMDVRGGKAAGGDTAIAPGYGYESANARHDKTEFPVASEFYMSFLGPLTFVKPDGSPIAVIGWEDAQGAWAA | not failed
MTETYVLAESPEFYQDNVTDYTGQISSSDITNIQAAIDDVKASEQKVIFVVFLSSFDGVDPETWTQQALQANGGGNVLIYALAPEERQYGIQGGTQWTDAELDAANNAAFQALSQEDWAGSALEHHHHHH | not failed
MKISLVTVTFNSAKTLCDTIHSVLSQSYTNIEYIIVDGLSNDETVTLIKEYEPLFQGRLKWISEKDKGLYDAMNKGIRMSTGDIVGIINSDDFYHRGDVLEKVAESFEAGETEAIYGDVRFVNPDNLDRTVRYYSSKRFVPSLFRFGFMPAHPTFFTYRKYFDQFGYYKTNYKIAADYELLVRFLYVHRLKSKYLPLDFMKMRTGGASTASIKSNILLNKEIVRACKENGIWTCYPLLLLKYLVKVFELIFIKKLEHHHHHH | not failed
MHSGLDNSAELRVSDFDPITLAGGTRTEVLPGAIQPHAALLALAPADLTIVHAAGATASLLGAAAELLPGTAASTAFSSDQIARLQALATAERWIERPQHAFTLNAPDATPIDVIVHHASGLLVVELDPRREPAPENSLALVQSMIRRARPAPNLQGFCDAMAAELRSVTGFDRVMVYRFARDGSADVIAEARGPETSPFLGLRDPQPDISNQPGSISRIRVQPDVHAPAAPLWPAHSPRNGLALDLSFSATRSASPEHRLYLAQLGVAASLSLSLVVEGELWGLIVCHHATPRFLPYRMREACALFAEMASLQLETRLAADQLAARLRSTRIHEELVTRMSQESDLAEGLIRFYPNLLDFIPAAGVGLWIDGQFTGIGATPGPAQVAAMMGWLHGVPHDGVYHTDCLALAYPPAKAFAGCASGLLALSLSNTPHNYVLWFRPEVVRVVTWAGMPNKPVGVDAGAPRTPKGCASSWQESVRLHGEPWLDTDVDAAHRLRESLLDVVLRRIDGIARERRSAQLLQEQLMRQVELGLSRSKDVAKTLQEEKRRRVLVEADLSKVLRRTVEDQEAERLRIARELHDTLGQSLTLLQLGFDKLGQAAGDNPELQQRIAEMKSLTADVGRQANRLAWEIRPTALDDLGIQTAIQNLLDSWSEKSSIEFDLHMTLGSRRLPSPVETTLYRVLQEALTNVVRHASARHVSVILQLGDDQVTMIVEDDGCGFVTAGRKPPSGRLGLLGIRERLSLVGGSLEIESAPGKGTALYARIPL | failed
MTAVSLGPSPARRDALARRIRLLVTATIGYNVVEAVVAITAGTIASSTALIGFGLDSVIEVSSAAAVAWQFSARDPAVREAREKRTLRIIAFSFFALALYVTVDSVRALTGTGEAGHSVPGIVLAGLSLAIMPFLSAAQRKAGREIGSASAVADSKQTLLCTYLSAVLLVGLLVNLLLGWTWADPVAALVISAIAVKEGRDAWQGRGCCAAPTWATPQAGADTDNCDCCS | failed
TFGEKLLNAASTRGRLCVGIDPHESLLTSWGLPVNVDGLAEFSRACVEAFADTVALVKPQVAFYERFGSAGFAILEETIQTLRERGCLVVSDAKRGDIGSTMAGYASAWLDPASPLSSDAVTVSPYLGFHSLDPVFELAEQHGRGVFVLAATSNPEARELQDQQNADGVSISQQIVDQAAALNAPYMAQGKAGNIGVVIGATLSKPPRLSTLGGAILMPGVGAQGGTASDVDEIAGDMAHLAFPNVSRSILATGPDIAEMKNSVAKNAADFPGFP | not failed
MPSEAFRRHRAYRENKLQPLVSVLICAYNVEKYFAQSLAAVVNQTWRNLDILIVDDGSTDGTLAIAQRFQEQDGRIRILAQPRNSGLIPSLNIGLDELAKSGGGGEYIARTDADDIAAPDWIEKIVGEMEKDRSIIAMGAWLEVLSEEKDGNRLARHHEHGKIWKKPTRHEDIADFFPFGNPIHNNTMIMRRSVIDGGLRYNTERDWAEDYQFWYDVSKLGRLAYYPEALVKYRLHANQVSSKYSIRQHEIAQGIQKTARNDFLQSMGFKTRFDSLEYRQIKAVAYELLEKHLPEEDFERARRFLYQCFKRTDTLPAGAWLDFAADGRMRRLFTLRQYFGILHRLLKNR | failed
MAEEQEIVDSLSAEVNPDQKVDMEVETATPKAETGDEKREREETEEEENGGESKKQKVGEEEKSGPVKLGPKEFVTSVAMFDYFVKFLHFWPTDLDVNKYEHMVLLDLIKKGHSEPEKKIGGGIKTFQVRTHPMWKSRCFFLVREDDTADDFSFRKCVDQILPLPENMKTPGANGNGHGGGRGGGGGRRGGRGGGRGGRFRR | failed
MSALDIPVTPENYTVWYEYFAQSNLDLNRAIDGFLANNVVFTKEVNTSLYKNFIQEKSPEVIENVQIETQILINSLISKITQLNQGTEAFSNTLADFGLQLQSSPDVNTLNQLVDGVIDEMQNLLVNNQTMEQSLNAMGQEVQNLKTEMENLSLAAMTDQLTSLHNRRAYEIAIQDHIHRAEEQHTRCSLLLIDIDRFKVFNDTYGHQVGDKVLAYVALALKQCVRGDDFVARYGGEEFVVLLPNTHFHDALQVAETLRGRISERRLAIGKDKKLSLGAITVSIGLASLQKGDDAETLFSRADKALYEAKSDGRNCVRG | failed
MRRFLVLLWLLSLALAAPRLVVEPEDGVKPLLDLIASAREEILVKMYLWTPSRMDVVEALGEAARRGVRVRVLLEREPSGGRVDLEVFQALKARGVEVRLTTPFRFVFVHEKSLVVDRKRAWVGTMNLTGSSFAANREYALILDDPAQVAEIAKVFEADWEGERLDLSQALLVWAPSRVLGGVKEGNARETLLALIRGAQRELFLEHQAMADPEVEAALKEALGRGVRVRLLGSPKEPGDTYFLAGALRLKEAGALVRFLPDPYVHAKVLVRDGEEALLGSLNLSANSIQANRELAVRFTAREAPEAFRRLLFVMEGDWEKALPENPFALPPVEGVIPWQEAPRYFGRVATVEGVIQAVEDRGTVAFLKFGPGESDLRLVVFPRSYGLFAQPFPQSYLGKKVRARGRIVLYAGYYEIVLEGPENLEVLDGGP | failed
MMIITTMQDAIGRTPVFKFTNKDYPIPLNSAIYAKLEHLNPGGSVKDRLGQYLIGEGFKTGKITSKTTIIEPTAGNTGIALALVAIKHHLKTIFVVPEKFSTEKQQIMRALGALVINTPTSEGISGAIKKSKELAESIPDSYLPLQFENPDNPAAYYHTLAPEIVQELGTNLTSFVAGIGSGGTFAGTARYLKERIPAIRLIGVEPEGSILNGGEPGPHEIEGIGVEFIPPFFENLDIDGFETISDEEGFSYTRKLAKKNGLLVGSSSGAAFVAALKEAQRLPEGSQVLTIFPDVADRYLSKGIYL | failed
MSLDYTYADDSLTLHTDMYQINMMQTYWELGRADLHAVFECYFREMPFNHGYAIFAGLERLVNYLENLTFTESDIAYLREVEEYPEDFLTYLANFEFKCTVRSALEGDLVFNNEPLIQIEGPLAQCQLVETALLNMVNFQTLIATKAARIKSVIGDDPLLEFGTRRAQELDAAIWGTRAAYIGGADATSNVRAGKIFGIPVSGTHAHSLVQSYGNDYEAFMAYAKTHRDCVFLVDTYDTLKAGVPSAIRVAREMGDKINFLGVRIDSGDMAYISKRVREQLDEAGFTEAKIYASNDLDENTILNLKMQKSKIDVWGVGTKLITAYDQPALGAVFKLVSIEGEDGQMKDTIKLSSNAEKVTTPGKKQVWRITRKSDKKSEGDYVTLWNEDPRQEEEIYMFHPVHTFINKYVRDFEARPVLQDIFVEGKRVYELPTLDEIKQYAKENLDSLWEEYKRDLNPQKYPVDLSTDCWNHKMNLLEKVRKDVKHLTETVNKEAEGHHHHHH | not failed
MPRMEALFNTVVPVALVVLSGYLLGRQLEMDLSTLSRLTLYALVPALILDSMYRAEYTLEGVWGLVLGFSLTYALLFLLVQGAGKLFGLSRETTKTLLVCGLFPNSGNMGLSLVYFALGEEGLRRAVVYFLLSSALMFGLGPAFIRGGSLKEGLLFTLRLPLFYALFLGLLLKALGLSLPFRLEEGVRLMGQAAIPVLLLTLGMQMGKTRFHLGPFEGAASALRLLLAPLVAYGVGALLGLPRLEHQVLVLQSATPVAVNAFLLTREFGGDALRVARSVVVSTFLAFLTVPLVLYLLGVR | failed
